In US20200165333A1 (University of Pennsylvania, published 2020):

Experiments:
[1] = biological target: T1, human platelet factor 4 (PF4) (human, UniProt P02776 32-101); assay: SPR (Biacore), human PF4 immobilized on CM5 chip; antibody expressed in 293T cells
T1 construct: Immobilized on a CM5 chip (Biacore) or on an ELISA plate; also called human PF4
T1 sequence (looked up): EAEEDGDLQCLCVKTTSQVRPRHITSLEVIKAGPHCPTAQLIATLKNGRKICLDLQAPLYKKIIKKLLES
Experimental: (§1) The binding affinity of the mammalian-cell-expressed RTO antibodies to human PF4 immobilized on the surface of a CM5 chip was evaluated using Biacore technology. The humanized antibody (huLight, huHeavy) binds to human PF4 at nM levels (Table 1), which is almost identical to the hybridoma-expressed and mammalian-cell-expressed parental antibody mRTO (mLight, mHeavy).

[2] = biological target: T1, human platelet factor 4 (PF4); assay: SPR (Biacore), human PF4 immobilized on CM5 chip; antibody expressed in expi-CHO cells
Experimental: as §1

B1: humanized RTO antibody (huLight, huHeavy) (antibody, V domains shown)
VH: EVQLVESGGGLVQPGGSLRLSCAASGFAFSRYDMSWVRQAPGKGLEWVATITSGDNYTYYPDSVKGRFTISRDNSKNTLYLQMNSLRAEDTAVYYCTRQGLLYYAMDYWGQGTLVTVSS
VL: DIQMTQSPSSLSASVGDRVTISCSASQGINNYLSWYRQKPGKAPKLLIYYTSSLHSGVPSRFSGSGSGTDFTLTISSLQPEDFATYFCQQFSKLPYTFGGGTKVEIKR
notes: Tested as expressed in 293T and in expi-CHO cells; also called huRTO; HuRTO
[1]
  Kd: 0.75 nM
[2]
  Kd: 2 nM
